# T1: APBA3_1, O96018
# T1 sequence (O96018 389-490, limits assumed, looked up): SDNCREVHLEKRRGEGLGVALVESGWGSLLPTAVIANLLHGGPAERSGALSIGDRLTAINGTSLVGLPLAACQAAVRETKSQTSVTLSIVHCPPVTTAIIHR
# T2: GRIP1_2, Q9Y3R0
# T2 sequence (Q9Y3R0 145-248, limits assumed, looked up): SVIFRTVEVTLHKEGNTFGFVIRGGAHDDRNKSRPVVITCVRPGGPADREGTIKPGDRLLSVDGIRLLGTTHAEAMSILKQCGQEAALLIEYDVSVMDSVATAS
# T3: SNTA1, Q13424
# T3 sequence (Q13424 82-180, limits assumed, looked up): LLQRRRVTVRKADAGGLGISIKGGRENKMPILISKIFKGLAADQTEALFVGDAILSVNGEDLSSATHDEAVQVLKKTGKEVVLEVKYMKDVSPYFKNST
# T4: FRMPD1, Q5SYB0
# T4 sequence (Q5SYB0 52-145, limits assumed, looked up): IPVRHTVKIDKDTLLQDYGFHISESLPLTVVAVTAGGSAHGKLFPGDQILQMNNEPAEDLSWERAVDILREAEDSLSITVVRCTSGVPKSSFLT
# T5: DVL3, Q92997
# T5 sequence (Q92997 244-331, limits assumed, looked up): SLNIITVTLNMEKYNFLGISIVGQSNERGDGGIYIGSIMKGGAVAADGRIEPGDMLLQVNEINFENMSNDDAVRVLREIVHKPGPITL
# T6: TIAM2, Q8IVF5
# T6 sequence (Q8IVF5 885-986, limits assumed, looked up): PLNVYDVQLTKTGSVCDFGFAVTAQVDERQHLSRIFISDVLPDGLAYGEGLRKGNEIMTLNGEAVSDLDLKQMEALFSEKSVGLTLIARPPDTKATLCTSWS
# T7: APBA2_1, Q99767
# T7 sequence (Q99767 563-664, limits assumed, looked up): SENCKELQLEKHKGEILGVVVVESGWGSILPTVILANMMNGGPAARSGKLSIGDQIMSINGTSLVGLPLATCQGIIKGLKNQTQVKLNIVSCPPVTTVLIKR
# T8: NHERF3_1, Q5T2W1
# T8 sequence (Q5T2W1 4-100, limits assumed, looked up): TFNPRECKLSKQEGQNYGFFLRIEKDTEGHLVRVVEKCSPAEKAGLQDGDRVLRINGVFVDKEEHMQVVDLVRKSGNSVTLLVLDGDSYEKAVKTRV
# T9: CARD11, Q9BXL7
# T9 sequence (Q9BXL7 662-765, limits assumed, looked up): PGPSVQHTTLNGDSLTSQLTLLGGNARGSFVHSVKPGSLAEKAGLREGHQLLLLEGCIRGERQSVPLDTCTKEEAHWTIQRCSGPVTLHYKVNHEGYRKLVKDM
# T10: ARHGEF11, O15085
# T10 sequence (O15085 42-136, limits assumed, looked up): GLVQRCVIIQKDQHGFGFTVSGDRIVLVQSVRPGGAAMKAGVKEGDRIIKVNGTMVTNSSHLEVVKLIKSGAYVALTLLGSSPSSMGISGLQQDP
# T11: TJP3_3, O95049
# T11 sequence (O95049 375-456, limits assumed, looked up): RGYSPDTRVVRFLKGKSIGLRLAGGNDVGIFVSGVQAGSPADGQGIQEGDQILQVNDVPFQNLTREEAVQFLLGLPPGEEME
# T12: MPP6, Q9NZW5
# T12 sequence (Q9NZW5 125-219, limits assumed, looked up): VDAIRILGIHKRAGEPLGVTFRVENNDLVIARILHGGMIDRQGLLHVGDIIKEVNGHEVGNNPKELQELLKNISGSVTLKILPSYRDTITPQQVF
# T13: PCLO, Q9Y6V0
# T13 sequence (Q9Y6V0 4491-4600, limits assumed, looked up): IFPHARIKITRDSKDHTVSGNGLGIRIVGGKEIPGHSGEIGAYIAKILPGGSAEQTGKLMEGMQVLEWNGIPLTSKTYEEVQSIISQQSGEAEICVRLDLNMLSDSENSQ
# B1: TTC24, A2A3L6 (peptide)
# chain: PMESGICTIV
# B2: PTH2R, P49190 (peptide)
# chain: GCQGETEDVL
# B3: GJA1, P17302 (peptide)
# chain: SRPRPDDLEI
# Target: T1, APBA3_1, O96018
# Experiment: holdup assay
# Design: key: below the threshold = too weak to quantify, mostly under pKd 3.1 to 4
# Details: plain residues with an end cap or a label only (N-terminal biotin on a linker: ado-ado)
row,Binder,pKd
1,B1,below the threshold
2,B2,below the threshold
3,B3,below the threshold

# Target: MAGI2_6, Q86UL8
# Sequence (Q86UL8 1141-1229): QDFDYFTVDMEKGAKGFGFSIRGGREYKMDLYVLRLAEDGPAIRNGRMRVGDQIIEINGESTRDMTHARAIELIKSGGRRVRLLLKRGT
# Experiment: holdup assay
# Design: key: below the threshold = too weak to quantify, mostly under pKd 3.1 to 4
# Details: plain residues with an end cap or a label only (N-terminal biotin on a linker: ado-ado)
row,Binder,pKd
1,B1,3.86
2,B2,below the threshold
3,B3,below the threshold

# Target: T2, GRIP1_2, Q9Y3R0
# Experiment: holdup assay
# Design: key: below the threshold = too weak to quantify, mostly under pKd 3.1 to 4
# Details: plain residues with an end cap or a label only (N-terminal biotin on a linker: ado-ado)
row,Binder,pKd
1,B1,below the threshold
2,B2,below the threshold
3,B3,below the threshold

# Target: T3, SNTA1, Q13424
# Experiment: holdup assay
# Design: key: below the threshold = too weak to quantify, mostly under pKd 3.1 to 4
# Details: plain residues with an end cap or a label only (N-terminal biotin on a linker: ado-ado)
row,Binder,pKd
1,B1,4.61
2,B2,3.9
3,B3,below the threshold

# Target: DLG5_1, Q8TDM6
# Sequence (Q8TDM6 617-713): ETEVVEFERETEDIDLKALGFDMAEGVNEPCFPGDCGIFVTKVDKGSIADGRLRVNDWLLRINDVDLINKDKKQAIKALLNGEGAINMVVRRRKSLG
# Experiment: holdup assay
# Design: key: below the threshold = too weak to quantify, mostly under pKd 3.1 to 4
# Details: plain residues with an end cap or a label only (N-terminal biotin on a linker: ado-ado)
row,Binder,pKd
1,B1,below the threshold
2,B2,below the threshold
3,B3,below the threshold

# Target: Inadl_6, Q8NI35
# Sequence (Q8NI35 1058-1167): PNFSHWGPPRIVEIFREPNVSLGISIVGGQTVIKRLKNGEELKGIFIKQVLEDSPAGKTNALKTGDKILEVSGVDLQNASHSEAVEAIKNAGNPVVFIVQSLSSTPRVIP
# Experiment: holdup assay
# Design: key: below the threshold = too weak to quantify, mostly under pKd 3.1 to 4
# Details: plain residues with an end cap or a label only (N-terminal biotin on a linker: ado-ado)
row,Binder,pKd
1,B1,4
2,B2,below the threshold
3,B3,below the threshold

# Target: GRIP2_3, Q9C0E4
# Sequence (Q9C0E4 238-339): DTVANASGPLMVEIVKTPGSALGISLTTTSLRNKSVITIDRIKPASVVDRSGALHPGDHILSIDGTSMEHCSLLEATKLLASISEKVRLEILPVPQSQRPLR
# Experiment: holdup assay
# Design: key: below the threshold = too weak to quantify, mostly under pKd 3.1 to 4
# Details: plain residues with an end cap or a label only (N-terminal biotin on a linker: ado-ado)
row,Binder,pKd
1,B1,below the threshold
2,B2,below the threshold
3,B3,below the threshold

# Target: NOS1, P29475
# Sequence (P29475 9-101): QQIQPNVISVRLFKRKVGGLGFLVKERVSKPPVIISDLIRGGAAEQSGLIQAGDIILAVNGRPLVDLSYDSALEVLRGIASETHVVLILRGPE
# Experiment: holdup assay
# Design: key: below the threshold = too weak to quantify, mostly under pKd 3.1 to 4
# Details: plain residues with an end cap or a label only (N-terminal biotin on a linker: ado-ado)
row,Binder,pKd
1,B1,3.98
2,B2,3.67
3,B3,below the threshold

# Target: T4, FRMPD1, Q5SYB0
# Experiment: holdup assay
# Design: key: below the threshold = too weak to quantify, mostly under pKd 3.1 to 4
# Details: plain residues with an end cap or a label only (N-terminal biotin on a linker: ado-ado)
row,Binder,pKd
1,B1,below the threshold
2,B2,below the threshold
3,B3,below the threshold

# Target: T5, DVL3, Q92997
# Experiment: holdup assay
# Design: key: below the threshold = too weak to quantify, mostly under pKd 3.1 to 4
# Details: plain residues with an end cap or a label only (N-terminal biotin on a linker: ado-ado)
row,Binder,pKd
1,B1,3.65
2,B2,below the threshold
3,B3,below the threshold

# Target: T6, TIAM2, Q8IVF5
# Experiment: holdup assay
# Design: key: below the threshold = too weak to quantify, mostly under pKd 3.1 to 4
# Details: plain residues with an end cap or a label only (N-terminal biotin on a linker: ado-ado)
row,Binder,pKd
1,B1,below the threshold
2,B2,below the threshold
3,B3,below the threshold

# Target: T7, APBA2_1, Q99767
# Experiment: holdup assay
# Design: key: below the threshold = too weak to quantify, mostly under pKd 3.1 to 4
# Details: plain residues with an end cap or a label only (N-terminal biotin on a linker: ado-ado)
row,Binder,pKd
1,B1,below the threshold
2,B2,below the threshold
3,B3,below the threshold

# Target: T8, NHERF3_1, Q5T2W1
# Experiment: holdup assay
# Design: key: below the threshold = too weak to quantify, mostly under pKd 3.1 to 4
# Details: plain residues with an end cap or a label only (N-terminal biotin on a linker: ado-ado)
row,Binder,pKd
1,B1,4.02
2,B2,3.98
3,B3,below the threshold

# Target: HTRA2, O43464
# Sequence (O43464 355-458): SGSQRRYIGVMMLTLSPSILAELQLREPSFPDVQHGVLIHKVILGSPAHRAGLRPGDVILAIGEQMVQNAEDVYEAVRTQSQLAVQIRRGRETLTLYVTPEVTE
# Experiment: holdup assay
# Design: key: below the threshold = too weak to quantify, mostly under pKd 3.1 to 4
# Details: plain residues with an end cap or a label only (N-terminal biotin on a linker: ado-ado)
row,Binder,pKd
1,B1,4.18
2,B2,below the threshold
3,B3,below the threshold

# Target: PICK1, Q9NRD5
# Sequence (Q9NRD5 17-115): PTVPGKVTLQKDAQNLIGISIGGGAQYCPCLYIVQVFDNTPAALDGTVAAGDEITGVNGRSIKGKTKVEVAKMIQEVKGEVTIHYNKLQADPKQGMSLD
# Experiment: holdup assay
# Design: key: below the threshold = too weak to quantify, mostly under pKd 3.1 to 4
# Details: plain residues with an end cap or a label only (N-terminal biotin on a linker: ado-ado)
row,Binder,pKd
1,B1,4.3
2,B2,3.99
3,B3,below the threshold

# Target: IL16_1, Q14005
# Sequence (Q14005 210-306): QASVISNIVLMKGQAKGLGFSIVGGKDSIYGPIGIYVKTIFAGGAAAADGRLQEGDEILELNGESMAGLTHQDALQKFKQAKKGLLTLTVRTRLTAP
# Experiment: holdup assay
# Design: key: below the threshold = too weak to quantify, mostly under pKd 3.1 to 4
# Details: plain residues with an end cap or a label only (N-terminal biotin on a linker: ado-ado)
row,Binder,pKd
1,B1,3.88
2,B2,below the threshold
3,B3,below the threshold

# Target: ARHGEF12, Q9NZN5-2
# Sequence (Q9NZN5 other isoform, or with tags, fused parts or gaps): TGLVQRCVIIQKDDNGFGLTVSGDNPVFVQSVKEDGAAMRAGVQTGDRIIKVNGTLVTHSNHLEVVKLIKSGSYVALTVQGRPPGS
# Experiment: holdup assay
# Design: key: below the threshold = too weak to quantify, mostly under pKd 3.1 to 4
# Details: plain residues with an end cap or a label only (N-terminal biotin on a linker: ado-ado)
row,Binder,pKd
1,B1,4.47
2,B2,below the threshold
3,B3,below the threshold

# Target: T9, CARD11, Q9BXL7
# Experiment: holdup assay
# Design: key: below the threshold = too weak to quantify, mostly under pKd 3.1 to 4
# Details: plain residues with an end cap or a label only (N-terminal biotin on a linker: ado-ado)
row,Binder,pKd
1,B1,below the threshold
2,B2,below the threshold
3,B3,below the threshold

# Target: T10, ARHGEF11, O15085
# Experiment: holdup assay
# Design: key: below the threshold = too weak to quantify, mostly under pKd 3.1 to 4
# Details: plain residues with an end cap or a label only (N-terminal biotin on a linker: ado-ado)
row,Binder,pKd
1,B1,4.85
2,B2,below the threshold
3,B3,below the threshold

# Target: GRIP2_6, Q9C0E4
# Sequence (Q9C0E4 648-740): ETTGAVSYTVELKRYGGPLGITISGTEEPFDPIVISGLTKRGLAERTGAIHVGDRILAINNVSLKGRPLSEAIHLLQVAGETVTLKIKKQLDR
# Experiment: holdup assay
# Design: key: below the threshold = too weak to quantify, mostly under pKd 3.1 to 4
# Details: plain residues with an end cap or a label only (N-terminal biotin on a linker: ado-ado)
row,Binder,pKd
1,B1,below the threshold
2,B2,below the threshold
3,B3,below the threshold

# Target: NHERF4_2, Q86UT5
# Sequence (Q86UT5 220-308): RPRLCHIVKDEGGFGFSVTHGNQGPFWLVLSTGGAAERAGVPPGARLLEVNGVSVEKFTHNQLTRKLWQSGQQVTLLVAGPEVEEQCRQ
# Experiment: holdup assay
# Design: key: below the threshold = too weak to quantify, mostly under pKd 3.1 to 4
# Details: plain residues with an end cap or a label only (N-terminal biotin on a linker: ado-ado)
row,Binder,pKd
1,B1,below the threshold
2,B2,below the threshold
3,B3,below the threshold

# Target: CASK, O14936
# Sequence (O14936 487-570): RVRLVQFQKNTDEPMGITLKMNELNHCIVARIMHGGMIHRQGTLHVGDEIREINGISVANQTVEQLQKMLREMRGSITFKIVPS
# Experiment: holdup assay
# Design: key: below the threshold = too weak to quantify, mostly under pKd 3.1 to 4
# Details: plain residues with an end cap or a label only (N-terminal biotin on a linker: ado-ado)
row,Binder,pKd
1,B1,below the threshold
2,B2,below the threshold
3,B3,below the threshold

# Target: T11, TJP3_3, O95049
# Experiment: holdup assay
# Design: key: below the threshold = too weak to quantify, mostly under pKd 3.1 to 4
# Details: plain residues with an end cap or a label only (N-terminal biotin on a linker: ado-ado)
row,Binder,pKd
1,B1,below the threshold
2,B2,below the threshold
3,B3,below the threshold

# Target: T12, MPP6, Q9NZW5
# Experiment: holdup assay
# Design: key: below the threshold = too weak to quantify, mostly under pKd 3.1 to 4
# Details: plain residues with an end cap or a label only (N-terminal biotin on a linker: ado-ado)
row,Binder,pKd
1,B1,below the threshold
2,B2,3.91
3,B3,3.62

# Target: T13, PCLO, Q9Y6V0
# Experiment: holdup assay
# Design: key: below the threshold = too weak to quantify, mostly under pKd 3.1 to 4
# Details: plain residues with an end cap or a label only (N-terminal biotin on a linker: ado-ado)
row,Binder,pKd
1,B1,below the threshold
2,B2,below the threshold
3,B3,below the threshold

# Reference: paper PMC9482650, “Quantitative fragmentomics allow affinity mapping of interactomes” (Nature Communications, 2022)
